# In article PMC10562830:
# Biological target: Chikungunya virus-like particles of the 37997 strain (chikungunya virus (strain 37997))
binder,measurement,value
"506.C01 (antibody, V domains shown) VH: QVQLQESGPGLVKPSQTLSLTCTVSGGSISSDDYYWTWIRLPPGKGLEWIGYIFYTGGTYYNPSLKSRVTISLDRSKNQFSLKLSSVTAADTAVYFCARAPETYCSTTNCYKGYFDSWGQGTLVTVSS VL: DIQMTQSPSSVSASVGDRVTITCRASQGISSWLGWYQQKPGKAPKLLIYAASSLQSGVPSRFSGSGSGTDFTLTISSLQPEDFATYYCQQANSFPRTFGQGTKVEIK","FRNT neutralisation of CHIKV-37997 and CHIKV-LR 2006 on Vero cells, EC50",< 10 ng/mL
